For assay [1], the target named is T1, chicken lysozyme (chicken, UniProt P00698 19-147).
T1 construct: also called Egg White Lysozyme
The assay can be described thus: ELISA, well coated with lysozyme (100 ug/ml) and blocked with ELK, ~50 ng iMab per well, anti-VSV-HRP; urea purification. In general terms: ELISA stands for enzyme-linked immunosorbent assay.

The target of a further assay is T2, bovine lactoferrin (bovine, UniProt P24627 20-708).
T2 construct: also called LF
The assay can be described thus: not described at this place.

The target in assay [2] is T1, chicken lysozyme. The assay can be described thus: ELISA on lysozyme, 100-fold dilution of the protein extract.
Assay [3] concerns the target T1, chicken lysozyme. The assay can be described thus: ELISA.

T1 sequence (P00698 19-147 limits assumed): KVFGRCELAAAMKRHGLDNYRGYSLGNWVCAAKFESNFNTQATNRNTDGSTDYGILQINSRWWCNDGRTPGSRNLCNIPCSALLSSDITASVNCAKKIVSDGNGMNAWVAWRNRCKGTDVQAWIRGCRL
T2 sequence (P24627 20-708 limits assumed): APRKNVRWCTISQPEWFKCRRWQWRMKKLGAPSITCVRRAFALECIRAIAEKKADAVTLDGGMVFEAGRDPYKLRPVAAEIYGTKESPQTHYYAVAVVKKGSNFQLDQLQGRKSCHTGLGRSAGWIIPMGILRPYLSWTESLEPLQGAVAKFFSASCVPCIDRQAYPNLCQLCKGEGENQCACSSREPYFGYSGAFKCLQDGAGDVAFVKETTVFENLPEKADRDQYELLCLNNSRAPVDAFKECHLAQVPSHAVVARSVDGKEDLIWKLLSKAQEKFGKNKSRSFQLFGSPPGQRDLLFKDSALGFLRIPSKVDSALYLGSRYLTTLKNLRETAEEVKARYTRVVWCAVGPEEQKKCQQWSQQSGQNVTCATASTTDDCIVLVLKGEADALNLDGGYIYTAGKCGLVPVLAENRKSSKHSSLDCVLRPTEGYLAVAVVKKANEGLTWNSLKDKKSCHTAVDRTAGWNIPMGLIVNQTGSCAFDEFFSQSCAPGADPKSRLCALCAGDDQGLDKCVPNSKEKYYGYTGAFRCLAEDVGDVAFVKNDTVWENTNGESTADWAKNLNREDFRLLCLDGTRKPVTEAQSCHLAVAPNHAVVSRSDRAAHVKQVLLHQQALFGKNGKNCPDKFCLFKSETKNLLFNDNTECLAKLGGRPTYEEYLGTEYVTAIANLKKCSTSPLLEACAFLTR

B1: iMab122 (designed binder)
chain: NVKLVEKGGNFVENDDDLKLTCRASGRTFSSRTMGWFRQAPNDDSTNVATIRWNGGSTYYTNYGDSVKERFDIRVDQASNTVTLSMDDLQPEDSAEYNCAGTDIGDGWSGRYDYRGQGTDVTVSS
notes: 9 beta-strand iMab; E. coli, CM126; not shown: C-terminal linker, VSV tag and 6x His tag of vector CM126
As for B1, the “Absorbtion (450 nm)” value in the assay with chicken lysozyme [1] came to 0.271 absorbance at 450 nm.

B2: iMab142-xx-0002 (designed binder, not shown: small tags and cut ends)
chain: MNVKLVEKGGNFVENDDDLKLTCRAEGYTIGPYSMGWFRQAPNDDSTNVSCINMGGGITYYGDSVKERFDIRRDNASNTVTLSMDDLQPEDSAVYNCAADWWDGFTYGSTWYNPSSYDYRGQGTDVTVSS
notes: also called iMab142-xx-002
Regarding B2, the binding result with bovine lactoferrin is listed as “binds”.

B3: iMab148-xx-0002 (designed binder)
chain: MNVHLVERGGNFVENDDDLNLTCRAEGYTIGPYSMGWFRQAPNDDSTNVATINMGGGITYYGDSVDERFDIRRDNASNTVTLSMDDLQPEDSAVYNCAADWWDGFTYGSTWYNPSSYDYRGQGTDVTVSS
notes: Derivative of iMab142-xx-0002 in which all lysine residues were replaced; xx = C-terminal tag not specified
Regarding B3, the binding result with bovine lactoferrin is given as “binds”.

B4: iMab111 (designed binder)
chain: NVKLVCKGGNFVENDDDLKLTCRAEGYTIGPYCMGWFRQAPNDDSTNVATINMGGGITYYGDSVKERFDIRRDNASNTVTLSMDDLQPEDSAEYNCAGDSTIYASYYECGHGLSTGGYGYDSHYRCQGTDVTVSS
notes: iMab100 derivative with two extra cysteines in the core; E. coli, CM126
Take B4: the “signal over background signal (fold)” value with chicken lysozyme [2] was approximately 20 fold. Also, in the assay with chicken lysozyme [1], the “Absorbtion (450 nm)” value amounted to 0.42 absorbance at 450 nm.

B5: iMab116 (designed binder)
chain: NVKLVEKGGNFVENDDDLKLTCRAEGYTIGPYCMGWFRQAPNDDSTNVATINMGGGITYYGDSVKERFDIRRDNASNTVTLSMDDLQPEDSAEYNGAGDSTIYGSYYECGHGLSTGGYGYDSHYRGQGTDVTVSS
notes: iMab100 derivative lacking one core cysteine; E. coli, CM126; also called iMab16; not shown: C-terminal linker, VSV tag and 6x His tag of vector CM126
Regarding B5, the “Absorbtion (450 nm)” value with chicken lysozyme [1] amounted to 0.238 absorbance at 450 nm.

B6: iMab115 (designed binder)
chain: NVKLVEKGGNFVENDDDLKLTCRAEGYTIGPYCMGWFRQAPNDDSTNVATINMGGGITYYGDSVKERFDIRRDQASNTVTLSMDDLQPEDSAEYNCAGDSTIYASYYECGHGLSTGGYGYDSHYRGQGTDVTVSS
notes: iMab100 with the asparagine of the putative N-glycosylation site in AR3 changed to glutamine; expressed in E. coli as a 21 kD protein; also called iMab15
B6: the binding result in the assay with chicken lysozyme [3] is recorded as “binds”.
